# Measured values taken from publication PMC3413153.
# Positions count from the first letter of the chain named.
# Columns and labels:
# KSRP KH1-4 WT = biological target: T1, KSRP KH1-4 WT (human, UniProt Q92945); assay: BLI
# T1 sequence: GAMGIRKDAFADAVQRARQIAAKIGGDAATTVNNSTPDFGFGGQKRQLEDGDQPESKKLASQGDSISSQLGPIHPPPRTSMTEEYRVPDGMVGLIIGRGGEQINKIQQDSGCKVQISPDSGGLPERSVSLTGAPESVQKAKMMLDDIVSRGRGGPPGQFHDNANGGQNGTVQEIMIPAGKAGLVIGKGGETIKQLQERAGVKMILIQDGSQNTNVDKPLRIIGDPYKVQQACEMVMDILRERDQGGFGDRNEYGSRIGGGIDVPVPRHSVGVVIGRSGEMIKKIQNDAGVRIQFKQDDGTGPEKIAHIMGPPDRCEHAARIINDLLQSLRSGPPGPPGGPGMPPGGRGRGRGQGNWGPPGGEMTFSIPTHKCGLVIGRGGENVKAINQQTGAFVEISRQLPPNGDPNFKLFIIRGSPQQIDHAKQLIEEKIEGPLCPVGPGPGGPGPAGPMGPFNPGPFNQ
# KSRP KH1-4, KH2 mutant = biological target: T2, KSRP KH1-4, KH2 mutant (human, UniProt Q92945 68-525, K251D;G252D); assay: BLI
# T2 sequence: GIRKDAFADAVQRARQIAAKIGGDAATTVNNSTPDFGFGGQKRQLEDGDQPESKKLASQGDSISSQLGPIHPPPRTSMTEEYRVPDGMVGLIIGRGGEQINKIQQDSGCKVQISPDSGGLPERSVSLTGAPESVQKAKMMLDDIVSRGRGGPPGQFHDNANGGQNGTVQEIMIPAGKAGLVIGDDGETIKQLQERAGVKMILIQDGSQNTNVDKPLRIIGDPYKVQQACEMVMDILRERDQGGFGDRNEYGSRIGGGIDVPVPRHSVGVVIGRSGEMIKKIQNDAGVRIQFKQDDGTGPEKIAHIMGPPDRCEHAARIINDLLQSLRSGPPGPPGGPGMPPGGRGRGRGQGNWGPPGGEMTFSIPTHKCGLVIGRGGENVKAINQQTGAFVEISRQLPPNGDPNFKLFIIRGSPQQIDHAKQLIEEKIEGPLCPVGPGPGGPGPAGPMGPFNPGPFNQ
# KSRP KH1-4, KH1 mutant = biological target: T3, KSRP KH1-4, KH1 mutant (human, UniProt Q92945 68-525, R162D;G163D); assay: BLI
# T3 sequence: T2 sequence with R95D, G96D, D184K, D185G
# KSRP KH1-4, KH3 mutant = biological target: T4, KSRP KH1-4, KH3 mutant (human, UniProt Q92945 68-525, R340D;S341D); assay: BLI
# T4 sequence: T2 sequence with D184K, D185G, R273D, S274D
# KSRP KH1-4, KH4 mutant = biological target: T5, KSRP KH1-4, KH4 mutant (human, UniProt Q92945 68-525, R442D;G443D); assay: BLI
# T5 sequence: T2 sequence with D184K, D185G, R375D, G376D
# KSRP KH2 = biological target: T6, KSRP KH2 (human, UniProt Q92945); assay: NMR
# T6 sequence: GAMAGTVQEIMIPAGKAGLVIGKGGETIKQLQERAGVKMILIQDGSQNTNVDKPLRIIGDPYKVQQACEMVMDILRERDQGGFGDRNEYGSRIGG
# KSRP KH3 = biological target: T7, KSRP KH3 (human, UniProt Q92945); assay: NMR
# T7 sequence: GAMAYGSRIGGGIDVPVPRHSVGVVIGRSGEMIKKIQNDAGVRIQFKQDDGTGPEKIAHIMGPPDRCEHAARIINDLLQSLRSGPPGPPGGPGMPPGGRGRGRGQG
# KSRP KH4 = biological target: T8, KSRP KH4 (human, UniProt Q92945); assay: NMR
# T8 sequence: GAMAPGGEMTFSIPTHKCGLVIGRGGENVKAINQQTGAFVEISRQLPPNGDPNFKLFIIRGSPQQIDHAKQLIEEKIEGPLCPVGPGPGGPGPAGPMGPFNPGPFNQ
# ZBP1 KH34 (Y396F) = ZBP1 KH34 (Y396F) (UniProt Q9NZI8, Y396F); assay: NMR
# KSRP KH1 = biological target: T9, KSRP KH1 (human, UniProt Q92945); assay: NMR
# T9 sequence: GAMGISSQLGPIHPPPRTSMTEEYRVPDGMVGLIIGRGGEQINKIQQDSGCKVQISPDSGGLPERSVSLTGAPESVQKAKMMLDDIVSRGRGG
binder,measurement,setting,value
GUGUGUUAUUAUUUAUUAUUUAUUUAUUAUUUAUUUAUUCAG (ssRNA) [TNFalpha BLI ARE 42-mer],Kd,KSRP KH1-4 WT,3.6 ± 1.4 nM
same,Kd,"KSRP KH1-4, KH2 mutant",43 ± 14 nM
same,Kd,"KSRP KH1-4, KH1 mutant",7.3 ± 1.7 nM
same,Kd,"KSRP KH1-4, KH3 mutant",95 ± 19 nM
same,Kd,"KSRP KH1-4, KH4 mutant",50 ± 16 nM
UUUAG (ssRNA),binding result,KSRP KH2,binds
UGGGU (ssRNA),binding result,KSRP KH3,binds
UAGGG (ssRNA),binding result,KSRP KH4,binds
GCACACCC (ssRNA),binding result,ZBP1 KH34 (Y396F),binds
UUGGG (ssRNA),binding result,KSRP KH1,binds
